Laboratory results: the Human Domainome abundance scans (Beltran et al. 2025)
± gives the uncertainty stated by the source.

Test: abundance fitness (aPCA) (normalised: wild type 0, dead -1); higher = more abundant; growth selection in yeast, the domain comes from the species named
Settings: Homo sapiens

| Substance | abundance fitness |
| --- | --- |
| Transcriptional activator Myb W185T, P10242 | -0.705 ± 0.12 |
| Transcriptional activator Myb K204R, P10242 | 0.066 ± 0.12 |
| Transcriptional activator Myb L172K, P10242 | -0.108 ± 0.1 |
| Transcriptional activator Myb E201H, P10242 | -0.034 ± 0.15 |
| Transcriptional activator Myb K204E, P10242 | -0.062 ± 0.11 |
| Transcriptional activator Myb E194C, P10242 | -0.226 ± 0.21 |
| Transcriptional activator Myb S202L, P10242 | -0.181 ± 0.073 |
| Transcriptional activator Myb W147K, P10242 | -0.674 ± 0.06 |
| Transcriptional activator Myb K144F, P10242 | -0.285 ± 0.16 |
| Transcriptional activator Myb K144M, P10242 | 0.028 ± 0.1 |
| Transcriptional activator Myb W166D, P10242 | -0.687 ± 0.15 |
| Transcriptional activator Myb L199R, P10242 | -0.045 ± 0.057 |
| Transcriptional activator Myb Y198C, P10242 | -0.16 ± 0.14 |
| Transcriptional activator Myb R191C, P10242 | 0.172 ± 0.15 |
| Transcriptional activator Myb W166Y, P10242 | -0.377 ± 0.14 |
| Transcriptional activator Myb L172Q, P10242 | -0.117 ± 0.1 |
| Transcriptional activator Myb G197P, P10242 | -0.13 ± 0.1 |
| Transcriptional activator Myb S202M, P10242 | -0.186 ± 0.12 |
| Transcriptional activator Myb R153M, P10242 | -0.11 ± 0.11 |
| Transcriptional activator Myb R190P, P10242 | -0.335 ± 0.083 |
| Transcriptional activator Myb K204N, P10242 | -0.153 ± 0.097 |
| Transcriptional activator Myb N179S, P10242 | -0.075 ± 0.061 |
| Transcriptional activator Myb D152K, P10242 | -0.311 ± 0.1 |
| Transcriptional activator Myb I154P, P10242 | -0.807 ± 0.12 |
| Transcriptional activator Myb A180H, P10242 | -0.23 ± 0.097 |
| Transcriptional activator Myb L199P, P10242 | -0.013 ± 0.1 |

| Substance | abundance fitness |
| --- | --- |
| Transcriptional activator Myb I181P, P10242 | -0.881 ± 0.25 |
| Transcriptional activator Myb E151S, P10242 | -0.73 ± 0.088 |
| Transcriptional activator Myb L199T, P10242 | -0.043 ± 0.092 |
| Transcriptional activator Myb Q200E, P10242 | -0.008 ± 0.082 |
| Transcriptional activator Myb L173M, P10242 | -0.305 ± 0.12 |
| Transcriptional activator Myb W185E, P10242 | -0.614 ± 0.068 |
| Transcriptional activator Myb E194S, P10242 | -0.161 ± 0.1 |
| Transcriptional activator Myb Y156V, P10242 | -0.056 ± 0.046 |
| Transcriptional activator Myb T177M, P10242 | -0.44 ± 0.093 |
| Transcriptional activator Myb Q200M, P10242 | -0.205 ± 0.088 |
| Transcriptional activator Myb Q200L, P10242 | -0.078 ± 0.067 |
| Transcriptional activator Myb Q195D, P10242 | -0.19 ± 0.13 |
| Transcriptional activator Myb I181H, P10242 | -1.17 ± 0.25 |
| Transcriptional activator Myb L172I, P10242 | -0.354 ± 0.16 |
| Transcriptional activator Myb E196T, P10242 | -0.044 ± 0.1 |
| Transcriptional activator Myb L173W, P10242 | -0.968 ± 0.11 |
| Transcriptional activator Myb A180K, P10242 | -0.266 ± 0.082 |
| Transcriptional activator Myb D152A, P10242 | -0.24 ± 0.066 |
| Transcriptional activator Myb I155G, P10242 | -0.894 ± 0.064 |
| Transcriptional activator Myb S203W, P10242 | -0.015 ± 0.097 |
| Transcriptional activator Myb T145Y, P10242 | -0.114 ± 0.23 |
| Transcriptional activator Myb S203F, P10242 | -0.29 ± 0.1 |
| Transcriptional activator Myb M189K, P10242 | 0.038 ± 0.14 |
| Transcriptional activator Myb A170P, P10242 | -0.809 ± 0.18 |
| Transcriptional activator Myb M189N, P10242 | -0.155 ± 0.14 |
| Transcriptional activator Myb K171E, P10242 | -0.017 ± 0.064 |

| Substance | abundance fitness |
| --- | --- |
| Transcriptional activator Myb P174D, P10242 | -0.224 ± 0.1 |
| Transcriptional activator Myb D152Q, P10242 | -0.065 ± 0.12 |
| Transcriptional activator Myb W147A, P10242 | -0.681 ± 0.043 |
| Transcriptional activator Myb N179C, P10242 | -0.022 ± 0.088 |
| Transcriptional activator Myb I169S, P10242 | -0.642 ± 0.076 |
| Transcriptional activator Myb R176P, P10242 | -0.87 ± 0.15 |
| Transcriptional activator Myb I169D, P10242 | -0.679 ± 0.13 |
| Transcriptional activator Myb L172N, P10242 | -0.34 ± 0.14 |
| Transcriptional activator Myb K204V, P10242 | -0.29 ± 0.22 |
| Transcriptional activator Myb N183T, P10242 | 0.101 ± 0.086 |
| Transcriptional activator Myb R191D, P10242 | 0.117 ± 0.12 |
| Transcriptional activator Myb P174N, P10242 | -0.255 ± 0.16 |
| Transcriptional activator Myb D152F, P10242 | -0.752 ± 0.12 |
| Transcriptional activator Myb R191F, P10242 | -0.164 ± 0.21 |
| Transcriptional activator Myb R190I, P10242 | -0.265 ± 0.14 |
| Transcriptional activator Myb L173P, P10242 | -0.656 ± 0.23 |
| Transcriptional activator Myb K144N, P10242 | 0.073 ± 0.11 |
| Transcriptional activator Myb K204H, P10242 | -0.401 ± 0.39 |
| Transcriptional activator Myb T188F, P10242 | -0.214 ± 0.14 |
| Transcriptional activator Myb G163P, P10242 | -0.19 ± 0.1 |
| Transcriptional activator Myb N186G, P10242 | -0.162 ± 0.055 |
| Transcriptional activator Myb E196V, P10242 | -0.121 ± 0.092 |
| Transcriptional activator Myb M189D, P10242 | -0.384 ± 0.094 |
| Transcriptional activator Myb E201I, P10242 | -0.156 ± 0.2 |
| Transcriptional activator Myb H159R, P10242 | -0.243 ± 0.18 |
| Transcriptional activator Myb S203T, P10242 | 0.006 ± 0.1 |
